Assay results reported in patent publication US20240376151A1, “STAPLED PEPTIDES AND METHODS THEREOF” (FOG PHARMACEUTICALS, INC., priority 2022, published 2024).

Molecular target: T1, RNF31 PUB domain (Homo sapiens, UniProt Q96EP0)
T1 construct: MBP-TEV (N, cleaved yes); made in house; host or cells: E. coli BL21 (DE3) pLysS
T1 sequence (Q96EP0 1-179): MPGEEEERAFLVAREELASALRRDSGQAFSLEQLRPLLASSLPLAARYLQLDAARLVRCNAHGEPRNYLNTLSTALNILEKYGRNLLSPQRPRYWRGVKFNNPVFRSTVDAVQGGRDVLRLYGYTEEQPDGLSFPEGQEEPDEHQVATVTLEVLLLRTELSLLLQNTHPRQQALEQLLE
Assay: Phage Library Screening with NGS, RNF31 PUB domain
Format: binding
Details: for Phage library screen NGS readout, Target Concentration 10 / Phage library screen NGS readout, Target Concentration 30 / Phage library screen NGS readout, Target Concentration 100 / Phage library screen NGS readout, Target Concentration 300 / Phage library screen NGS readout, Target Concentration 1000: RNF31 PUB domain clusters C41-C45; for Phage library screen NGS readout, BLANK: clusters C41-C45

[1] = target concentration 1000, first column
[2] = target concentration 1000, second column

| Sequence | Phage library screen NGS readout, Target Concentration 10 | Phage library screen NGS readout, Target Concentration 30 | Phage library screen NGS readout, Target Concentration 100 | Phage library screen NGS readout, Target Concentration 300 | Phage library screen NGS readout, Target Concentration 1000 [1] | Phage library screen NGS readout, Target Concentration 1000 [2] | Phage library screen NGS readout, BLANK (column 1 of 5) | Phage library screen NGS readout, BLANK (column 2 of 5) | Phage library screen NGS readout, BLANK (column 3 of 5) | Phage library screen NGS readout, BLANK (column 4 of 5) | Phage library screen NGS readout, BLANK (column 5 of 5) |
| --- | --- | --- | --- | --- | --- | --- | --- | --- | --- | --- | --- |
| DPAWTQCDWAALYCEDQ | 0 | 1 | 0 | 1 | 7 | 10 | 0 | 0 | 0 | 0 | 0 |
| DPAWWNCLYAADECWSW | 0 | 0 | 0 | 3 | 13 | 6 | 0 | 0 | 1 | 0 | 0 |
| DPAWWNCLYAANTCVED | 0 | 1 | 0 | 5 | 7 | 5 | 1 | 2 | 1 | 1 | 1 |
| DPAWWSCMYAAWTCDDT | 1 | 10 | 0 | 7 | 14 | 15 | 0 | 2 | 2 | 1 | 1 |
| DPAYDWCLYAAYQCDQN | 0 | 0 | 0 | 6 | 13 | 40 | 0 | 0 | 0 | 0 | 0 |

Second part, the sequence after the results:

| Phage library screen NGS readout, Target Concentration 10 | Phage library screen NGS readout, Target Concentration 30 | Phage library screen NGS readout, Target Concentration 100 | Phage library screen NGS readout, Target Concentration 300 | Phage library screen NGS readout, Target Concentration 1000 [1] | Phage library screen NGS readout, Target Concentration 1000 [2] | Phage library screen NGS readout, BLANK (column 1 of 5) | Phage library screen NGS readout, BLANK (column 2 of 5) | Phage library screen NGS readout, BLANK (column 3 of 5) | Phage library screen NGS readout, BLANK (column 4 of 5) | Phage library screen NGS readout, BLANK (column 5 of 5) | Sequence |
| --- | --- | --- | --- | --- | --- | --- | --- | --- | --- | --- | --- |
| 0 | 0 | 0 | 3 | 12 | 2 | 2 | 0 | 0 | 0 | 0 | DPAWWDCMYAASHCDTV |
| 1 | 0 | 0 | 3 | 9 | 5 | 0 | 0 | 0 | 2 | 0 | DPAWWNCLYAAYECNHA |
| 0 | 2 | 2 | 19 | 62 | 71 | 1 | 2 | 1 | 0 | 0 | DPAYDLCLNAAVACTYV |
| 0 | 0 | 0 | 1 | 7 | 4 | 0 | 0 | 1 | 0 | 0 | DPAYDWCLYAAEYCHTD |
